# B1: 80-nt ssDNA overhang (Oligo 9+10) (mixed)
# DNA 1: TGGCGACGGCAGCGAGGCTTATGTTCATTTTTTATATCCTTTACTTTATTTTCTCTGTTTATTCATTTACTTATTTTGTATTATCCTTATCTTATTTA
# DNA 2: GCCTCGCTGCCGTCGCCA
# B2: 80-nt ssDNA, biotinylated Oligo 1 (ssDNA)
# DNA: TTATGTTCATTTTTTATATCCTTTACTTTATTTTCTCTGTTTATTCATTTACTTATTTTGTATTATCCTTATCTTATTTA
# B3: 80-nt ssDNA Oligo 1 (ssDNA)
# DNA: B2 DNA
# Columns and labels:
# [1] = target: SNAP649-CST (Homo sapiens, UniProt Q2NKJ3;Q9H668;Q86WV5 1-1217;1-368;1-123); test: CoSMoS; EGFP-RPA-coated DNA, 50 mM KCl, 13.5 nM; smFRET: 25 mM Tris-HCl pH 7.5, 0.5 mM EDTA, 10% glycerol, 50 or 150 mM KCl (temperature not stated); pull-down: 35 mM Tris-HCl pH 7.5, 10% glycerol, 0.01% Igepal, 1 mM 2-ME, 1 mM ATP, 2.5 mM MgCl2, 50 or 150 mM KCl, 37 C; EMSA: 35 mM Tris-HCl pH 7.5, 1 mM DTT, 2.5 mM MgCl2, 100 ng/uL BSA, 50 mM KCl, 37 C; conditions: protein: recombinant; tags: SNAP (SNAP-Surface 649 label); copies: 1;1;1; label: 5' Cy3 and 3' biotin on Oligo 10; 3' overhang 80 nt
# SNAP649-CST, sequence (Q2NKJ3 whole entry, chain 1 of 3): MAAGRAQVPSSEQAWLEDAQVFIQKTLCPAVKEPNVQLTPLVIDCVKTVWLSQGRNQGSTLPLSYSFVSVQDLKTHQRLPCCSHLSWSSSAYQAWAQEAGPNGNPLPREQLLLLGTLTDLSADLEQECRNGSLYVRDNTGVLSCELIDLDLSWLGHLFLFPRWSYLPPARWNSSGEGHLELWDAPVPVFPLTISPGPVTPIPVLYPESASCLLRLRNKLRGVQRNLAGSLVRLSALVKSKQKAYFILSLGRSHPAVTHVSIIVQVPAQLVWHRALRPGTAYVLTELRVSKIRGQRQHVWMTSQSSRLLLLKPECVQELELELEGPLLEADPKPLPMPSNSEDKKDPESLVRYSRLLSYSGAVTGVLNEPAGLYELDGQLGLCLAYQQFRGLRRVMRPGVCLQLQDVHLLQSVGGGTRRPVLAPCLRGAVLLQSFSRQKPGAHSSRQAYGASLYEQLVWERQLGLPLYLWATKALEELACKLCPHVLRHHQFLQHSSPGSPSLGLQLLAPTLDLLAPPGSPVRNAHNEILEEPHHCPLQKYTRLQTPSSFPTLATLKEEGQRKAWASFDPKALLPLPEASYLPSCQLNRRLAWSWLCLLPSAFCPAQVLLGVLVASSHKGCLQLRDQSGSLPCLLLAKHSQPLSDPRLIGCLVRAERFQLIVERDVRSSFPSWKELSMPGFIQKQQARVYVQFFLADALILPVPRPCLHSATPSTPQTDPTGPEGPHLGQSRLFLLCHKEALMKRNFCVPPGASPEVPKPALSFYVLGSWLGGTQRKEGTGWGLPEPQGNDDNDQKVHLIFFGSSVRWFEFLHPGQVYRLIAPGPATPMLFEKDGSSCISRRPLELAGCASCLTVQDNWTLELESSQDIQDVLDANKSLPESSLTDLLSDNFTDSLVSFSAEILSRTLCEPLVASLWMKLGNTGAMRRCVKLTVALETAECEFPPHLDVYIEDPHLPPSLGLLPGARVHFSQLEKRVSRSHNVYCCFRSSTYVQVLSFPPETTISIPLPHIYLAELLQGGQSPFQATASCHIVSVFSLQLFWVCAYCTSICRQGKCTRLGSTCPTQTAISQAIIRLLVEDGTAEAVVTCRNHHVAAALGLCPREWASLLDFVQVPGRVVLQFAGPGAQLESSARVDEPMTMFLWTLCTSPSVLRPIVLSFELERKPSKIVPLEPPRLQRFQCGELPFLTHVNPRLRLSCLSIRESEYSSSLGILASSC
# SNAP649-CST, sequence (Q9H668 whole entry, chain 2 of 3): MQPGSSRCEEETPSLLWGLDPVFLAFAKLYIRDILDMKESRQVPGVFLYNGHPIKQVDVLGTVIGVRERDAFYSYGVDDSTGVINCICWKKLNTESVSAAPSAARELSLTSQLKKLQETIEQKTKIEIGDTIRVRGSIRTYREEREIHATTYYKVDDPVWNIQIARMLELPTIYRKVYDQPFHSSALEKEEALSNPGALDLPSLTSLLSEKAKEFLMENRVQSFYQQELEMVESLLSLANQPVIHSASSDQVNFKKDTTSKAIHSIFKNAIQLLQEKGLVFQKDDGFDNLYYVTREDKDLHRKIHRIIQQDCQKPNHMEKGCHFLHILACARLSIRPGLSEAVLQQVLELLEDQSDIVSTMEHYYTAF
# SNAP649-CST, sequence (Q86WV5 whole entry, chain 3 of 3): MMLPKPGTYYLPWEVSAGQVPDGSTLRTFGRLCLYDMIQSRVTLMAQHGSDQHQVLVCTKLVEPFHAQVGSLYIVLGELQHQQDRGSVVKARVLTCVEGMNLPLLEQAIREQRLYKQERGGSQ
# [2] = target: EGFP-RPA (Homo sapiens, UniProt P27694;P15927;P35244 1-616;1-270;1-121); test: CoSMoS; 50 mM KCl, 10 nM; ~85% of DNA foci RPA-bound; 1-4 RPA per DNA; smFRET: 25 mM Tris-HCl pH 7.5, 0.5 mM EDTA, 10% glycerol, 50 or 150 mM KCl (temperature not stated); pull-down: 35 mM Tris-HCl pH 7.5, 10% glycerol, 0.01% Igepal, 1 mM 2-ME, 1 mM ATP, 2.5 mM MgCl2, 50 or 150 mM KCl, 37 C; EMSA: 35 mM Tris-HCl pH 7.5, 1 mM DTT, 2.5 mM MgCl2, 100 ng/uL BSA, 50 mM KCl, 37 C; conditions: protein: recombinant; tags: EGFP; copies: 1;1;1; label: 5' Cy3 and 3' biotin on Oligo 10; 3' overhang 80 nt
# EGFP-RPA, sequence (P27694 whole entry, chain 1 of 3): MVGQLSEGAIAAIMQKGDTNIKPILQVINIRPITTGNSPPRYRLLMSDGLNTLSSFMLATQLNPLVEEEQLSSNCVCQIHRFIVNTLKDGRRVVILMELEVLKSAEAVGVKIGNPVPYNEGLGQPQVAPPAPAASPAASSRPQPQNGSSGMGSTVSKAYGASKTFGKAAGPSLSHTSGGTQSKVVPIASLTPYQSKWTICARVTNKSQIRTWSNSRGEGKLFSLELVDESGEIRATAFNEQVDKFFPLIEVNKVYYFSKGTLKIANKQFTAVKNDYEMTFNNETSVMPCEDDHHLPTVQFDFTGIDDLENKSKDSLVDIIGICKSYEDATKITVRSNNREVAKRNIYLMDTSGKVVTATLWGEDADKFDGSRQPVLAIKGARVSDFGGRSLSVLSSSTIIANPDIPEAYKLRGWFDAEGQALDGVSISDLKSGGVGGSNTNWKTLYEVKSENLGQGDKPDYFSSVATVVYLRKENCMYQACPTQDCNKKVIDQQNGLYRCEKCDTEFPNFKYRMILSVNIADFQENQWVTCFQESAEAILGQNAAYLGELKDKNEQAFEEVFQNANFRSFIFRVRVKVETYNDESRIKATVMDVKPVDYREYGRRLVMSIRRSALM
# EGFP-RPA, sequence (P15927 whole entry, chain 2 of 3): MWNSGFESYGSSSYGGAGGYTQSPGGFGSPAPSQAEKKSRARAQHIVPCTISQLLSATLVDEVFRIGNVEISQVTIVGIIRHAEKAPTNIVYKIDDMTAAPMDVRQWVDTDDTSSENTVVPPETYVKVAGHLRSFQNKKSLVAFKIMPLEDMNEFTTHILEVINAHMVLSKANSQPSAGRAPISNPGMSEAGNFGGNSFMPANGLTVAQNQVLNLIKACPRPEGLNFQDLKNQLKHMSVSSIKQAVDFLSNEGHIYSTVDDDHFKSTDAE
# EGFP-RPA, sequence (P35244 whole entry, chain 3 of 3): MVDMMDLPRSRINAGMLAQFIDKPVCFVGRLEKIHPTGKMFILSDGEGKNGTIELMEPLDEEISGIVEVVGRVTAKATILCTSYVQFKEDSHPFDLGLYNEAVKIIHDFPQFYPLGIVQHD
# [3] = target: T1, RAD51 (Homo sapiens, UniProt Q06609 1-339); test: pull-down; RPA-coated DNA plus CST; smFRET: 25 mM Tris-HCl pH 7.5, 0.5 mM EDTA, 10% glycerol, 50 or 150 mM KCl (temperature not stated); pull-down: 35 mM Tris-HCl pH 7.5, 10% glycerol, 0.01% Igepal, 1 mM 2-ME, 1 mM ATP, 2.5 mM MgCl2, 50 or 150 mM KCl, 37 C; EMSA: 35 mM Tris-HCl pH 7.5, 1 mM DTT, 2.5 mM MgCl2, 100 ng/uL BSA, 50 mM KCl, 37 C; conditions: protein: recombinant; chain copies: 10; label: 5' biotin, on streptavidin beads
# T1 sequence (Q06609 whole entry): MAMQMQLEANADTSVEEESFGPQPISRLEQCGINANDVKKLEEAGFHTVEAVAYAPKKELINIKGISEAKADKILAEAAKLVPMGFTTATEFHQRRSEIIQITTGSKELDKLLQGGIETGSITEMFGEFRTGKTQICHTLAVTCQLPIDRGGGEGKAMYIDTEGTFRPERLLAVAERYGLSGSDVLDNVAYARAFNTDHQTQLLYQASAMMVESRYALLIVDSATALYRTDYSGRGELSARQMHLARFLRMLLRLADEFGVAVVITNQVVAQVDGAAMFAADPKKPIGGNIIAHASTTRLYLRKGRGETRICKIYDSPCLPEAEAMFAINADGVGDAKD
# [4] = target: CST complex (CTC1-STN1-TEN1) (Homo sapiens, UniProt Q2NKJ3;Q9H668;Q86WV5 1-1217;1-368;1-123); test: pull-down; RPA-coated DNA, 50 mM KCl; smFRET: 25 mM Tris-HCl pH 7.5, 0.5 mM EDTA, 10% glycerol, 50 or 150 mM KCl (temperature not stated); pull-down: 35 mM Tris-HCl pH 7.5, 10% glycerol, 0.01% Igepal, 1 mM 2-ME, 1 mM ATP, 2.5 mM MgCl2, 50 or 150 mM KCl, 37 C; EMSA: 35 mM Tris-HCl pH 7.5, 1 mM DTT, 2.5 mM MgCl2, 100 ng/uL BSA, 50 mM KCl, 37 C; conditions: protein: recombinant; tags: FLAG-CTC1, TEN1-His6; copies: 1;1;1; label: 5' biotin, on streptavidin beads
# CST complex (CTC1-STN1-TEN1), sequence (Q2NKJ3 whole entry, chain 1 of 3): as the sequence (Q2NKJ3 whole entry, chain 1 of 3) above
# CST complex (CTC1-STN1-TEN1), sequence (Q9H668 whole entry, chain 2 of 3): as the sequence (Q9H668 whole entry, chain 2 of 3) above
# CST complex (CTC1-STN1-TEN1), sequence (Q86WV5 whole entry, chain 3 of 3): as the sequence (Q86WV5 whole entry, chain 3 of 3) above
# [5] = target: RPA complex (Homo sapiens, UniProt P27694;P15927;P35244 1-616;1-270;1-121); test: pull-down; 50 mM KCl; unchanged by CST; smFRET: 25 mM Tris-HCl pH 7.5, 0.5 mM EDTA, 10% glycerol, 50 or 150 mM KCl (temperature not stated); pull-down: 35 mM Tris-HCl pH 7.5, 10% glycerol, 0.01% Igepal, 1 mM 2-ME, 1 mM ATP, 2.5 mM MgCl2, 50 or 150 mM KCl, 37 C; EMSA: 35 mM Tris-HCl pH 7.5, 1 mM DTT, 2.5 mM MgCl2, 100 ng/uL BSA, 50 mM KCl, 37 C; conditions: protein: recombinant; copies: 1;1;1; label: 5' biotin, on streptavidin beads
# RPA complex, sequence (P27694 whole entry, chain 1 of 3): as the sequence (P27694 whole entry, chain 1 of 3) above
# RPA complex, sequence (P15927 whole entry, chain 2 of 3): as the sequence (P15927 whole entry, chain 2 of 3) above
# RPA complex, sequence (P35244 whole entry, chain 3 of 3): as the sequence (P35244 whole entry, chain 3 of 3) above
# [6] = target: T1, RAD51; test: negative-stain EM; 150 mM KCl; naked DNA, median filament 96.41 nm; smFRET: 25 mM Tris-HCl pH 7.5, 0.5 mM EDTA, 10% glycerol, 50 or 150 mM KCl (temperature not stated); pull-down: 35 mM Tris-HCl pH 7.5, 10% glycerol, 0.01% Igepal, 1 mM 2-ME, 1 mM ATP, 2.5 mM MgCl2, 50 or 150 mM KCl, 37 C; EMSA: 35 mM Tris-HCl pH 7.5, 1 mM DTT, 2.5 mM MgCl2, 100 ng/uL BSA, 50 mM KCl, 37 C; conditions: protein: recombinant; chain copies: 10
binder,measurement,setting,value
B1,binding result,[1],binds
same,binding result,[2],binds
B2,binding result,[3],binds
same,binding result,[4],binds
same,binding result,[5],binds
B3,binding result,[6],binds
